The values below come from patent US20160009789A1 (published 2016).

Assay [1] concerns the target HXBc2. Briefly: ELISA. Background: An ELISA detects its analyte on a solid surface through an enzyme-linked reagent.
Assay [2] concerns the target gp41 MPER peptide (residues 657 to 669 of gp41) linked to a C-terminal C9 tag. In words: SPR.

B1: HC+gLC (antibody, V domains shown)
VH: QVQLVQSGGQMKKPGESMRISCRASGYEFIDCTLNWIRLAPGKRPEWMGWLKPRGGAVNYARPLQGRVTMTRDVYSDTAFLELRSLTVDDTAVYFCTRGKNCDYNWDFEHWGRGTPVIVSS
VL: EIVLTQSPATLSLSPGERATLSCRASQYSVSSYLAWYQQKPGQAPRLLIYDASNRATGIPARFSGSGSGRDFTLTISSLEPEDFAVYYCQQFGQGTKLEIK
What is called EC50 is the concentration at which the effect is half-maximal. A high value points to a less potent agent. B1: in assay [1], it took 2.14 µg/mL to reach a half-maximal effect (EC50).

B2: gHC+gLC (antibody, V domains shown)
VH: not shown
VL: B1 VL
Regarding B2, the EC50 in assay [1] is greater than 50 µg/mL.

B3: gHC+LC (antibody, V domains shown)
VH: not shown
VL: EIVLTQSPGTLSLSPGETAIISCRTSQYGSLAWYQQRPGQAPRLVIYSGSTRAAGIPDRFSGSRWGPDYNLTISNLESGDFGVYYCQQYEFFGQGTKVQVDI
In turn, B3 returned an EC50 in assay [1] of 21.4 µg/mL.

B4: 2F5 wild-type IgG (antibody, V domains shown)
VH: RITLKESGPPLVKPTQTLTLTCSFSGFSLSDFGVGVGWIRQPPGKALEWLAIIYSDDDKRYSPSLNTRLTITKDTSKNQVVLVMTRVSPVDTATYFCAHRRGPTTLFGVPIARGPVNAMDVWGQGITVTISS
VL: ALQLTQSPSSLSASVGDRITITCRASQGVTSALAWYRQKPGSPPQLLIYDASSLESGVPSRFSGSGSGTEFTLTISTLRPEDFATYYCQQLHFYPHTFGGGTRVDVRR
For orientation: Kd means the concentration at which binding is half-saturated. Take B4: in assay [2], the Kd was 9.5 nM.
